According to patent US20250262210A1 (TRUSTEES OF COLUMBIA UNIVERSITY IN THE CITY OF NEW YORK, published 2025):
Substitutions are numbered along the chain they refer to. Blank lines part the entries; values can stand above or below the binder they belong to.

Legend:
LZTR1-FLAG = biological target: T1, LZTR1-FLAG (human, UniProt Q8N653 1-840); assay: IP/MS, LZTR1 wild type-FLAG, U87
T1 construct: Expressed in HEK 293T, HeLa or U87 cells; used as cell lysate; also called LZTR1 wild type-FLAG; LZTR1 WT; not shown: FLAG tag at the C-terminus
T1 sequence (looked up): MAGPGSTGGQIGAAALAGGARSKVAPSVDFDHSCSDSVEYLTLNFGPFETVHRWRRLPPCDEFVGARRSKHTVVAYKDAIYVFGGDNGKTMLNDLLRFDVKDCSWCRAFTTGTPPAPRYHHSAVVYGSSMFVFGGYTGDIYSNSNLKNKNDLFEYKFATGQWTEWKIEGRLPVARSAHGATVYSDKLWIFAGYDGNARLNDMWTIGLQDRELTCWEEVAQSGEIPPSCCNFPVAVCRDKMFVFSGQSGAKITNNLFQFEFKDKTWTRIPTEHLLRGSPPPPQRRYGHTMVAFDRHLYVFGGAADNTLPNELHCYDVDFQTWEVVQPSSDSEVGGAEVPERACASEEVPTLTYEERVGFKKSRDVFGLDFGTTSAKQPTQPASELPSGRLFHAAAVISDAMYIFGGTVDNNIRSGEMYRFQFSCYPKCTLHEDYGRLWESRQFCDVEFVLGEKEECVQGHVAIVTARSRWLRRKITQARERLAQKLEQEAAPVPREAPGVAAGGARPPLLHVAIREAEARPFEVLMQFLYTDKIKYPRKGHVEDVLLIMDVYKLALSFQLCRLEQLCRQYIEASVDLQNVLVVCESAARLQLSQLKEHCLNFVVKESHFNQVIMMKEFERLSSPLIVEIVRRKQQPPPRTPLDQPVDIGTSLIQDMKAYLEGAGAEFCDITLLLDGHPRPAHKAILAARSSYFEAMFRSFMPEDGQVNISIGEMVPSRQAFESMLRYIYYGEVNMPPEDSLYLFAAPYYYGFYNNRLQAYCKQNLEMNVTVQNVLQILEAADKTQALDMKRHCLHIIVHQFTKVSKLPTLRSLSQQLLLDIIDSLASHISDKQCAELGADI
Summary of the method: (§1)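 Extracted peptides in 3% acetonitrile/0.1% formic acid ran on a 50 cm C18 column into an Orbitrap Fusion, with MaxQuant identification and spectral counting.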

LZTR1 R810W-FLAG = biological target: T2, LZTR1 R810W-FLAG (human, UniProt Q8N653 1-840); assay: IP/MS, LZTR1 R810W-FLAG, U87
T2 construct: Stably expressed in U87 cells by lentivirus; also called LZTR1-FLAG-R810W; LZTR1 RW; not shown: FLAG tag
T2 sequence (looked up): T1 sequence (looked up) with R810W
Summary of the method: as §1

B1: POR (other, human, UniProt P16435 2-677, looked up)
chain: GDSHVDTSSTVSEAVAEEVSLFSMTDMILFSLIVGLLTYWFLFRKKKEEVPEFTKIQTLTSSVRESSFVEKMKKTGRNIIVFYGSQTGTAEEFANRLSKDAHRYGMRGMSADPEEYDLADLSSLPEIDNALVVFCMATYGEGDPTDNAQDFYDWLQETDVDLSGVKFAVFGLGNKTYEHFNAMGKYVDKRLEQLGAQRIFELGLGDDDGNLEEDFITWREQFWPAVCEHFGVEATGEESSIRQYELVVHTDIDAAKVYMGEMGRLKSYENQKPPFDAKNPFLAAVTTNRKLNQGTERHLMHLELDISDSKIRYESGDHVAVYPANDSALVNQLGKILGADLDVVMSLNNLDEESNKKHPFPCPTSYRTALTYYLDITNPPRTNVLYELAQYASEPSEQELLRKMASSSGEGKELYLSWVVEARRHILAILQDCPSLRPPIDHLCELLPRLQARYYSIASSSKVHPNSVHICAVVVEYETKAGRINKGVATNWLRAKEPAGENGGRALVPMFVRKSQFRLPFKATTPVIMVGPGTGVAPFIGFIQERAWLRQQGKEVGETLLYYGCRRSDEDYLYREELAQFHRDGALTQLNVAFSREQSHKVYVQHLLKQDREHLWKLIEGGAHIYVCGDARNMARDVQNTFYDIVAELGAMEHAQAVDYIKKLMTKGRYSLDVWS
- binding result (LZTR1-FLAG): binds
- binding result (LZTR1 R810W-FLAG): binds

B5: RABGEF1 (other, human, UniProt Q9UJ41 1-491, looked up)
chain: MSLKSERRGIHVDQSDLLCKKGCGYYGNPAWQGFCSKCWREEYHKARQKQIQEDWELAERLQREEEEAFASSQSSQGAQSLTFSKFEEKKTNEKTRKVTTVKKFFSASSRVGSKKEIQEAKAPSPSINRQTSIETDRVSKEFIEFLKTFHKTGQEIYKQTKLFLEGMHYKRDLSIEEQSECAQDFYHNVAERMQTRGKVPPERVEKIMDQIEKYIMTRLYKYVFCPETTDDEKKDLAIQKRIRALRWVTPQMLCVPVNEDIPEVSDMVVKAITDIIEMDSKRVPRDKLACITKCSKHIFNAIKITKNEPASADDFLPTLIYIVLKGNPPRLQSNIQYITRFCNPSRLMTGEDGYYFTNLCCAVAFIEKLDAQSLNLSQEDFDRYMSGQTSPRKQEAESWSPDACLGVKQMYKNLDLLSQLNERQERIMNEAKKLEKDLIDWTDGIAREVQDIVEKYPLEIKPPNQPLAAIDSENVENDKLPPPLQPQVYAG
- binding result (LZTR1-FLAG): binds
- binding result (LZTR1 R810W-FLAG): binds

B7: PTOV1 (other, human, UniProt Q86YD1 1-416, looked up)
chain: MVRPRRAPYRSGAGGPLGGRGRPPRPLVVRAVRSRSWPASPRGPQPPRIRARSAPPMEGARVFGALGPIGPSSPGLTLGGLAVSEHRLSNKLLAWSGVLEWQEKRRPYSDSTAKLKRTLPCQAYVNQGENLETDQWPQKLIMQLIPQQLLTTLGPLFRNSQLAQFHFTNRDCDSLKGLCRIMGNGFAGCMLFPHISPCEVRVLMLLYSSKKKIFMGLIPYDQSGFVSAIRQVITTRKQAVGPGGVNSGPVQIVNNKFLAWSGVMEWQEPRPEPNSRSKRWLPSHVYVNQGEILRTEQWPRKLYMQLIPQQLLTTLVPLFRNSRLVQFHFTKDLETLKSLCRIMDNGFAGCVHFSYKASCEIRVLMLLYSSEKKIFIGLIPHDQGNFVNGIRRVIANQQQVLQRNLEQEQQQRGMGG
- binding result (LZTR1-FLAG): binds
- binding result (LZTR1 R810W-FLAG): binds

The remaining lines, values ahead:

- binding result (LZTR1-FLAG): binds
- binding result (LZTR1 R810W-FLAG): binds
B2: RAP1GDS1 (other, human, UniProt P52306 1-607, looked up)
chain: MDNLSDTLKKLKITAVDKTEDSLEGCLDCLLQALAQNNTETSEKIQASGILQLFASLLTPQSSCKAKVANIIAEVAKNEFMRIPCVDAGLISPLVQLLNSKDQEVLLQTGRALGNICYDSHEGRSAVDQAGGAQIVIDHLRSLCSITDPANEKLLTVFCGMLMNYSNENDSLQAQLINMGVIPTLVKLLGIHCQNAALTEMCLVAFGNLAELESSKEQFASTNIAEELVKLFKKQIEHDKREMIFEVLAPLAENDAIKLQLVEAGLVECLLEIVQQKVDSDKEDDITELKTGSDLMVLLLLGDESMQKLFEGGKGSVFQRVLSWIPSNNHQLQLAGALAIANFARNDANCIHMVDNGIVEKLMDLLDRHVEDGNVTVQHAALSALRNLAIPVINKAKMLSAGVTEAVLKFLKSEMPPVQFKLLGTLRMLIDAQAEAAEQLGKNVKLVERLVEWCEAKDHAGVMGESNRLLSALIRHSKSKDVIKTIVQSGGIKHLVTMATSEHVIMQNEALVALALIAALELGTAEKDLESAKLVQILHRLLADERSAPEIKYNSMVLICALMGSECLHKEVQDLAFLDVVSKLRSHENKSVAQQASLTEQRLTVES

- binding result (LZTR1-FLAG): binds
- binding result (LZTR1 R810W-FLAG): binds
B3: RASA3 (other, human, UniProt Q14644 2-834, looked up)
chain: AVEDEGLRVFQSVKIKIGEAKNLPSYPGPSKMRDCYCTVNLDQEEVFRTKIVEKSLCPFYGEDFYCEIPRSFRHLSFYIFDRDVFRRDSIIGKVAIQKEDLQKYHNRDTWFQLQHVDADSEVQGKVHLELRLSEVITDTGVVCHKLATRIVECQGLPIVNGQCDPYATVTLAGPFRSEAKKTKVKRKTNNPQFDEVFYFEVTRPCSYSKKSHFDFEEEDVDKLEIRVDLWNASNLKFGDEFLGELRIPLKVLRQSSSYEAWYFLQPRDNGSKSLKPDDLGSLRLNVVYTEDHVFSSDYYSPLRDLLLKSADVEPVSASAAHILGEVCREKQEAAVPLVRLFLHYGRVVPFISAIASAEVKRTQDPNTIFRGNSLASKCIDETMKLAGMHYLHVTLKPAIEEICQSHKPCEIDPVKLKDGENLENNMENLRQYVDRVFHAITESGVSCPTVMCDIFFSLREAAAKRFQDDPDVRYTAVSSFIFLRFFAPAILSPNLFQLTPHHTDPQTSRTLTLISKTVQTLGSLSKSKSASFKESYMATFYEFFNEQKYADAVKNFLDLISSSGRRDPKSVEQPIVLKEGFMIKRAQGRKRFGMKNFKKRWFRLTNHEFTYHKSKGDQPLYSIPIENILAVEKLEEESFKMKNMFQVIQPERALYIQANNCVEAKDWIDILTKVSQCNQKRLTVYHPSAYLSGHWLCCRAPSDSAPGCSPCTGGLPANIQLDIDGDRETERIYSLFNLYMSKLEKMQEACGSKSVYDGPEQEEYSTFVIDDPQETYKTLKQVIAGVGALEQEHAQYKRDKFKKTKYGSQEHPIGDKSFQNYIRQQSETSTHSI

- binding result (LZTR1-FLAG): binds
- binding result (LZTR1 R810W-FLAG): binds
B4: RANBP9 (other, human, UniProt Q96S59 1-729, looked up)
chain: MSGQPPPPPPQQQQQQQQLSPPPPAALAPVSGVVLPAPPAVSAGSSPAGSPGGGAGGEGLGAAAAALLLHPPPPPPPATAAPPPPPPPPPPPASAAAPASGPPAPPGLAAGPGPAGGAPTPALVAGSSAAAPFPHGDSALNEQEKELQRRLKRLYPAVDEQETPLPRSWSPKDKFSYIGLSQNNLRVHYKGHGKTPKDAASVRATHPIPAACGIYYFEVKIVSKGRDGYMGIGLSAQGVNMNRLPGWDKHSYGYHGDDGHSFCSSGTGQPYGPTFTTGDVIGCCVNLINNTCFYTKNGHSLGIAFTDLPPNLYPTVGLQTPGEVVDANFGQHPFVFDIEDYMREWRTKIQAQIDRFPIGDREGEWQTMIQKMVSSYLVHHGYCATAEAFARSTDQTVLEELASIKNRQRIQKLVLAGRMGEAIETTQQLYPSLLERNPNLLFTLKVRQFIEMVNGTDSEVRCLGGRSPKSQDSYPVSPRPFSSPSMSPSHGMNIHNLASGKGSTAHFSGFESCSNGVISNKAHQSYCHSNKHQSSNLNVPELNSINMSRSQQVNNFTSNDVDMETDHYSNGVGETSSNGFLNGSSKHDHEMEDCDTEMEVDSSQLRRQLCGGSQAAIERMIHFGRELQAMSEQLRRDCGKNTANKKMLKDAFSLLAYSDPWNSPVGNQLDPIQREPVCSALNSAILETHNLPKQPPLALAMGQATQCLGLMARSGIGSCAFATVEDYLH

- binding result (LZTR1-FLAG): binds
- binding result (LZTR1 R810W-FLAG): binds
B6: PPP6C (other, human, UniProt O00743 1-305, looked up)
chain: MAPLDLDKYVEIARLCKYLPENDLKRLCDYVCDLLLEESNVQPVSTPVTVCGDIHGQFYDLCELFRTGGQVPDTNYIFMGDFVDRGYYSLETFTYLLALKAKWPDRITLLRGNHESRQITQVYGFYDECQTKYGNANAWRYCTKVFDMLTVAALIDEQILCVHGGLSPDIKTLDQIRTIERNQEIPHKGAFCDLVWSDPEDVDTWAISPRGAGWLFGAKVTNEFVHINNLKLICRAHQLVHEGYKFMFDEKLVTVWSAPNYCYRCGNIASIMVFKDVNTREPKLFRAVPDSERVIPPRTTTPYFL
